Experimental data: the supplement of paper PMC10567573
± gives the standard deviation.

Assay: protein stability index of a GFP-peptide fusion (GPS, HEK-293T) (PSI 1-6); higher = more stable
Conditions: c terminus: a fixed tail appended
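Further: 24-mer peptide tiles fused after GFP, lentivirally expressed, FACS-sorted into six equal bins by GFP/DsRed ratio, decoded by Illumina sequencing, PSI is the read-weighted mean bin number.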

Sequence | protein stability index (treatment: MLN4924 1 uM, 8 h) | protein stability index (treatment: DMSO)
YNIKLKWTNQQKLYSRTGDIVEFV [CFHR2] | 2.46 ± 0.41 | –
KPIVPTDGKRVIVVFHCEFSSERG [CDC25A] | 2.33 ± 0.28 | 2.64 ± 0.72
RGDLWISWEEGMKVFEELLLDADW [CRY1] | 2.4 ± 0.29 | 2.31 ± 0.41
KLFSTYLRPPHTSRGTSQTPNASS [LPCAT4] | 3.08 ± 0.32 | 3.17 ± 0.19
QLLILLQNCTDEGEREAIQKSVTR [POP5] | 4.12 ± 0.27 | 3.91 ± 0.26
TFILKNPPENSDSGTGKKEKEKKN [EIF5] | 5.137 ± 0.05 | 4.94 ± 0.3
DSKDCILEPLSLPESPGGTTTLEG [ZNF277] | 5.32 ± 0.25 | 5.36 ± 0.19
GTQFTFDQDPSVLYFSIHRYEQGR [HDAC6] | 2.52 ± 0.34 | 2.31 ± 0.51
LPKEASDGTGASQEPPTTDSQEAQ [TOR1AIP2] | 5.54 ± 0.2 | 5.65 ± 0.29
SYSAGDSGDAAAQPAFTGIKGKEG [EPB41L3] | 5.3 ± 0.25 | 5.37 ± 0.15
LEPDEDPLCMLLLIDHLALRARNY [TCF25] | 2.37 ± 0.23 | 2.54 ± 0.32
AVVNELIDYGANVNQPNNNGFTPL [ANKRD44] | 3.21 ± 0.17 | 3.05 ± 0.2
TQTSEECNGILTEKMEEEEQTCDP [ZNF396] | 5.71 ± 0.17 | 5.5 ± 0.22
VERSKMIDRNLREDGEKAAREVKL [GNAI1] | 5.09 ± 0.062 | 4.93 ± 0.38
VLEDNIIVSEVQFVESSGGGSSAV [BRF1] | 3.89 ± 0.27 | 3.75 ± 0.21
LYDLRADREVAIYSKESIIFGASS [GNB5] | 2.72 ± 0.27 | 2.51 ± 0.27
AALRLHRLLRDSEAFCHANCSGPA [P3H4] | 2.27 ± 0.27 | 2.1 ± 0.1
DHDPTIEDAYKIRIRIDDEPANLD [RIT1] | 4.84 ± 0.21 | 4.86 ± 0.19
GNNLHNASIPEHLAYGSVITVKNL [POMT2] | 3.02 ± 0.28 | 3.05 ± 0.37
VAVNNIGRGPPSEPVLTQTSEQAP [PTPRD] | 5.02 ± 0.49 | 4.78 ± 0.2

Sequence | protein stability index (treatment: MLN4924 1 uM, 8 h) | protein stability index (treatment: DMSO)
PAEAEGAAQELENQMKERQGLFFD [TMEM120A] | 5.26 ± 0.34 | 5.33 ± 0.1
MGKRYFCDYCDRSFQDNLHNRKKH [ZMAT5] | 3.42 ± 0.34 | 3.03 ± 0.33
PTDRNLCHFQALGCRTTHSNQEVL [PYCR3] | 2.37 ± 0.22 | 2.49 ± 0.35
LERNPNGVADGVIKSVLWQTLQAL [CDKL4] | 2.56 ± 1.1 | 2.28 ± 0.94
SSASYEKENEMMKSHVMDQAINNA [IKZF1] | 4.74 ± 0.28 | 4.78 ± 0.19
WQRGLNTPEDSDPDHFDTAILFTR [ADAMTS4] | 3.5 ± 0.46 | 3.54 ± 0.25
MSDKYHDSDEATAARLLFNMAGVT [DCTD] | 3.54 ± 0.36 | 3.53 ± 0.25
RKAAKSLIKLGLERFHGVGILGFN [ACSBG2] | 2.51 ± 0.35 | 2.64 ± 0.49
TKLSAQSAQYSQQLQAARNEYLLN [FCHSD1] | 3.33 ± 0.18 | 3.19 ± 0.055
GEDQAFGDWLLTANGSEIHKHVHF [SLC22A15] | 3.09 ± 0.26 | 3.03 ± 0.26
AGAFGYFQQDTKGLVDFRDVALAL [LPCAT4] | 2.12 ± 0.18 | 1.98 ± 0.18
LSKSRENPEEDEDQRNPAKESLET [SOAT1] | 5.66 ± 0.34 | 5.47 ± 0.27
SGAGHGSGSGSGPGCGSVPGSGSG [SPAG8] | 4.96 ± 0.4 | 5.03 ± 0.17
FVGAIFNGLTLLILGVIGLFTIPL [RTN2] | 2.27 ± 0.42 | 2.02 ± 0.11
NIMTQNVERILARGENLEHLRNKT [VAMP8] | 3.93 ± 0.068 | 3.46 ± 0.29
VVCQPNEFIMPDSAVVGDVLVLTK [SEPHS2] | 2.56 ± 0.36 | 2.35 ± 0.19
HGAHINLQSLKFQGGHGPAATLLR [RIPK4] | 3 ± 0.047 | 2.65 ± 0.36
TTFSTTSGYMEGYYTFHFLYFKDK [FBXO3] | 2.41 ± 0.41 | 2.97 ± 0.74
AIIASLTFLYTLLREVIHPLATSH [STEAP1] | 2.89 ± 0.39 | 3.25 ± 0.34
